# How the values were obtained:
# [1] = system: HIF-1 transcriptional activity; experiment: HRE-dependent luciferase reporter gene assay in PC-3 cells; format: cell-based; conditions: pooled PC-3-MSF-A vs PC-3-Neo cells
# Method: Reporter gene assay and luminescence measurements—HRE-dependent luciferase activity was performed using the pBI-GL construct (pBI-GL V6L) containing six tandem copies of the VEGF hypoxia response element as previously described (Mabjeesh et al., 2002; Post and Van Meir, 2001). Cells were grown in 6-well plates and then transiently transfected in triplicate with a total of 1 μg DNA including 0.1 μg of the reporter plasmid, pBI-GL V6L. Duplicate sets of transfected cell-culture plates were then separated and incubated for 16 hours under either normoxic or hypoxic conditions. Luciferase enzymatic activity was measured using the commercial kit TROPIX (Bedford, Mass.) in the Galaxy luminometer (BMG Labtechnologies LUMIstar) following the manufacturer's instructions. Arbitrary Luciferase activity units were normalized to the amount of protein in each assay point.
# To investigate the effect of MSF-A binding on HIF-1α function, the transcriptional activity of the HIF-1 complex was determined using a reporter gene assay as previously described (Mabjeesh N J et al. 2ME2 inhibits tumor growth and angiogenesis by disrupting microtubules and dysregulating HIF. Cancer Cell 2003; 3: 363-375). […]
# PC-3 xenograft tumors = experiment: Prostate cancer subcutaneous xenograft model; format: in vivo, CD1/nude mice; conditions: PC-3-MSF-A vs PC-3-Neo tumors
# Method: FIG. 28 is a graph depicting the effect of MSF-A over-expression on tumor volume. A prostate cancer xenograft model was established using PC-3-Neo and PC-3-MSF-A cells (3×10^6) which were implanted subcutaneously into the right hind of nude mice. PBS was used as a negative control. Animals were monitored for tumor volume measurements. Tumor volume measurements were calculated using the formula width^2×length×0.52. Mean±SEM (n=5) of representative experiments is shown.
# FIG. 29 is a graph depicting the effect of MSF-A over-expression on tumor weight. A prostate cancer xenograft model was established as described in FIG. 28. Mice were sacrificed after 6 weeks and tumors were processed for tumor weight measurements. Tumors were weighed immediately after dissection. Columns, means; bars, SEM; n=5; *, p<0.05.
# FIGS. 30a-h are photomicrographs (FIGS. 30a-f) and graphs (FIGS. 30g-h) depicting MSF-A over-expression in tumors and angiogenesis in a prostate cancer xenograft model. […] FIG. 30g—Ki67 staining (%) was quantified by dividing the number of positive nuclei by the number of total nuclei in 40× magnification field multiplied by 100, of 5 paraffin-embedded tumor sections from each animal per group. […] FIG. 30h—Microvessel density (MVD) was determined by counting the capillaries positive for CD34 staining in 4× magnification field per total section area excluding necrotic areas in 5 paraffin-embedded tumor sections from each animal per group. […]
# Immunohistochemistry with anti-CD34 and anti-Ki67—For immunohistochemical staining paraffin-embedded tissue was sectioned at 3 μm and mounted on Superfrost/plus slides (Menzel-Glaser, Braunschweig, Germany). […] For quantitative analysis of Ki67 and CD34 staining, positive staining cells and microvessels were counted and their density expressed as the number of positive cells per total number of cells or capillaries per total section area excluding necrotic areas, respectively. […]
molecule,measurement,setting,value
"MSF-A: myeloid/lymphoid leukemia septin-like fusion protein A (SEQ ID NO:3), over-expressed from the p3xFlag-MSF-A vector (protein, listed as Homo sapiens, 3xFlag tag) MKKSYSGGTRTSSGRLRRLGDSSGPALKRSFEVEEVETPNSTPPRRVQTPLLRATVASSTQKFQDLGVKNSEPSARHVDSLSQRSPKASLRRVELSGPKAAEPVSRRTELSIDISSKQVENAGAIGPSRFGLKRAEVLGHKTPEPAPRRTEITIVKPQESAHRRMEPPASKVPEVPTAPATDAAPKRVEIQMPKPAEAPTAPSPAQTLENSEPAPVSQLQSRLEPKPQPPVAEATPRSQEATEAAPSCVGDMADTPRDAGLKQAPASRNEKAPVDFGYVGIDSILEQMRRKAMKQGFEFNIMVVGQSGLGKSTLINTLFKSKISRKSVQPTSEERIPKTIEIKSITHDIEEKGVRMKLTVIDTPGFGDHINNENCWQPIMKFINDQYEKYLQEEVNINRKKRIPDTRVHCCLYFIPATGHSLRPLDIEFMKRLSKVVNIVPVIAKADTLTLEERVHFKQRITADLLSNGIDVYPQKEFDEDSEDRLVNEKFREMIPFAVVGSDHEYQVNGKRILGRKTKWGTIEVENTTHCEFAYLRDLLIRTHMQNIKDITSSIHFEAYRVKRLNEGSSAMANGVEEKEPEAPEM","HIF-1 transcriptional activity (luciferase assay), stable transfectants",[1],significant increase
same,intratumoral cell proliferation (Ki67) and vascular density (CD34),PC-3 xenograft tumors,significantly increased
same,mean tumor weight,PC-3 xenograft tumors; after 6 weeks,significantly heavier
same,increase of mean tumor volume,"PC-3 xenograft tumors; s.c., nude mice, not statistically significant",about 2 fold

# Reference: patent US8143228B2, “Agents capable of downregulating an MSF-A dependent HIF-1α and use thereof in cancer treatment” (Medical Research Fund of Tel Aviv Sourasky Medical Center, priority 2004, dated 2012)
